The results in this text go back to article PMC4831024 (2016).

Ends that are not written are not given here.

Sequences and labels used below:
B1: fluorescein-labelled WRN-cAX peptide (C-terminal KBM plus XLF-like motif of WRN) (peptide)
peptide: Fluorescein-GGYGSSAERKRRLPVWFAKGSDTSKKLMDKTKRGGLFS
B2: fluorescein-labelled WRN-cA peptide (C-terminal KBM of WRN) (peptide)
chain: Fluorescein-GGYGSSAERKRRLPVWFAKG
B3: fluorescein-labelled WRN-nA peptide (N-terminal KBM of WRN) (peptide)
chain: Fluorescein-GGYGAQQRKCPEWMNVQN

In this experiment the target is Ku70/Ku80ΔC heterodimer (human, UniProt P12956 1-609; P13010 1-590). Nature of the experiment: FP.
Chain of Ku70/Ku80ΔC heterodimer (P12956 whole entry, stated change not applied, chain 1 of 2): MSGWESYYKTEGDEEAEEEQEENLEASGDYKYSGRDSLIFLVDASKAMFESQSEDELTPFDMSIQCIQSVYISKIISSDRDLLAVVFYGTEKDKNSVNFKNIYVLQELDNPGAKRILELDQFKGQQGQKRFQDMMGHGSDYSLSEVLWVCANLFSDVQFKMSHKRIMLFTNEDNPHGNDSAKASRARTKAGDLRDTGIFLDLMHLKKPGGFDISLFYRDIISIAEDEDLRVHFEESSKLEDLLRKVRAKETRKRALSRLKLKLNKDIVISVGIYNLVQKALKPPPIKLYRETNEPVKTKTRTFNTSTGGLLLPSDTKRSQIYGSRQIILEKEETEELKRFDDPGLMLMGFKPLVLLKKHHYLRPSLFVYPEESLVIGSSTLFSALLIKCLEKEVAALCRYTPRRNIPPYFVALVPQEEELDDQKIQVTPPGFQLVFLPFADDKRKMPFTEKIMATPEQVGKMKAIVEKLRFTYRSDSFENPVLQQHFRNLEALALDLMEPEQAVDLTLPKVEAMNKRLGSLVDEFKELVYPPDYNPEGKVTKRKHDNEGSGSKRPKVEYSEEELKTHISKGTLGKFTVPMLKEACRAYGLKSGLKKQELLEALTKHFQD
Chain of Ku70/Ku80ΔC heterodimer (P13010 1-590, stated change not applied, chain 2 of 2): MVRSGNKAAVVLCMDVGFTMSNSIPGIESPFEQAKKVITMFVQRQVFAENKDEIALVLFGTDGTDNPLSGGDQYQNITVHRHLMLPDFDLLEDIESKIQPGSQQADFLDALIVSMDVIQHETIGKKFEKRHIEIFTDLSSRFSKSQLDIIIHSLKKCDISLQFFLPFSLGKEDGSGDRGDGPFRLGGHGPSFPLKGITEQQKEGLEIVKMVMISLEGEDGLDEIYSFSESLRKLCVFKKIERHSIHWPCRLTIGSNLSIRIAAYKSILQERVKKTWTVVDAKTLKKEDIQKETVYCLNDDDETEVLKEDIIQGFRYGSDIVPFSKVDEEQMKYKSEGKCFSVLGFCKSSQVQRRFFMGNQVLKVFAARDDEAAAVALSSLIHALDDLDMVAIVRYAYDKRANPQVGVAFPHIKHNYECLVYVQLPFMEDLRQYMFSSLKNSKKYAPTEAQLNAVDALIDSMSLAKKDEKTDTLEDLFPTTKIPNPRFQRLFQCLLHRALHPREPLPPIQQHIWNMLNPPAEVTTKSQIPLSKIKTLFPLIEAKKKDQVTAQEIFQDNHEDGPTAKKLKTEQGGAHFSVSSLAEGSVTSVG
For the molecule B1, the Kd (in general, the concentration at which binding is half-saturated) was found to be 720 nM.
For B2 the value was 790 nM; for B3, 1170 nM.
